# Data as given in publication PMC9573744, “Structural Insight of KSIII (β-Ketoacyl-ACP Synthase)-like Acyltransferase ChlB3 in the Biosynthesis of Chlorothricin” (Molecules, 2022).
# Biological target: the molecule itself
# Assay: crystal structure; sitting drop vapor diffusion, 0.1 M HEPS pH 7.0, 1.4 M sodium acetate-trihydrate, 20 °C; space group P212121, four dimers per asymmetric unit; 3.1 Å
protein,measurement,value
"ChlB3 (enzyme, Streptomyces antibioticus DSM 40725, ChlB3 acyltransferase of Streptomyces antibioticus DSM 40725, amplified from genomic DNA; chlB3 of 1044 bp cloned into pET28a (NheI/HindIII); also called KSIII (β-ketoacyl-ACP synthase)-like acyltransferase ChlB3; source: E. coli BL21 (DE3), purified (Nickel-NTA, Superdex-200 gel filtration)) MRTPDIFIKATGRFLPETVSVEWAVEQGHYSAEDAELHELGGAAVAGDTPAPDMALWAAQQAVKRCGHRPEDLGLLLYVDSWHQGPDGWQPQYYLQRHLVGGDVLAVEIQQGCNGMFSALELAAAHLRAGPRPGSALVVAADNFGTPLFDRWTTGPGYIAGDGAGAVVLTTEPGFARLLAVRSLAVPEAEQMHRGAEPLFPPGATIGRPLNFTSRNAAFRELSLTEGLGTGALMRVHQRTLEVVEKTLSEAGITLGDITRVAYMNFSREIVEQRCMAALGLPMSASTWEFGRKLGHLGASDQVVALDELVTTGELGPGDHLLMLGMGPGVTLSCAVVKVLTPAPWSD",stoichiometry N,2
